Measurements taken from US20030145347.

Key:
[1] = molecular target: rice thioredoxin with S-tag (recombinant, expressed in E. coli from pNOV4113)
[2] = molecular target: soybean thioredoxin prep without S-tag (recombinant, expressed in E. coli from pNOV4112, S-Tag removed by thrombin cleavage)
[3] = molecular target: soybean thioredoxin with S-tag (recombinant, expressed in E. coli from pNOV4112)
[4] = molecular target: wheat thioredoxin with S-tag (recombinant, expressed in E. coli from pNOV4114)

B1: E. coli thioredoxin reductase (T-7915, Sigma, St. Louis, Mo.) (protein)
chain: GTTKHSKLLILGSGPAGYTAAVYAARANLQPVLITGMEKGGQLTTTTEVENWPGDPNDLTGPLLMERMHEHATKFETEIIFDHINKVDLQNRPFRLNGDNGEYTCDALIIATGASARYLGLPSEEAFKGRGVSACATCDGFFYRNQKVAVIGGGNTAVEEALYLSNIASEVHLIHRRDGFRAEKILIKRLMDKVENGNIILHTNRTLEEVTGDQMGVTGVRLRDTQNSDNIESLDVAGLFVAIGHSPNTAIFEGQLELENGYIKVQSGIHGNATQTSIPGVFAAGDVMDHIYRQAITSAGTGCMAALDAERYLDGLADAK
For B1, the “reduction of thioredoxin, DTNB assay” value [1] was “can also reduce rice thioredoxin”, the “reduction of thioredoxin, DTNB assay” value [2] was “can reduce soybean thioredoxin with and without the S-tag” and the “reduction of thioredoxin, DTNB assay” value [3] was “can reduce soybean thioredoxin with and without the S-tag”. The “reduction of thioredoxin, DTNB assay” value [4] was “Wheat thioredoxin can be reduced by E. coli thioredoxin reductase”.
